Assay results from US20250215412A1 (NOVOZYMES A S, published 2025).
Substitutions are numbered along the chain they refer to. In names and notes the source's numbering stands. Several values for one entry are separate records, joined by “and”; a condition that tells them apart may be missing. Identical values can stand only once.

T1: Chryseobacterium sp-62563 deamidase polypeptide (second polypeptide, deamidase domain), wildtype (Chryseobacterium sp-62563)
T1 sequence: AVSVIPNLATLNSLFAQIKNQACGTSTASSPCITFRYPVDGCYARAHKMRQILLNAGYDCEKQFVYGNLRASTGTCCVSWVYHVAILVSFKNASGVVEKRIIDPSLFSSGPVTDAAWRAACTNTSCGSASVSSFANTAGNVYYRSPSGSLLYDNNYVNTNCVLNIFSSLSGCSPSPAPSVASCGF

B1: Chryseobacterium sp-62563 propeptide V25H (protein)
chain: NQDPNLVAKESNETAMKDFGKTVPHGIEKEDGKFKISFMVTAQPYEIKDSKENAAYISMIKTAVENETPIHVFLKANTNEIAKVDKATDDDIRYFKSVFTKEVKEENRK
B2: Chryseobacterium sp-62563 propeptide Q43H (protein)
chain: B1 chain with H25V, Q43H
B3: Chryseobacterium sp-62563 propeptide E67P (protein)
chain: B1 chain with H25V, E67P
B4: Chryseobacterium sp-62563 propeptide T41E (protein)
chain: B1 chain with H25V, T41E
B5: Chryseobacterium sp-62563 propeptide V64L (protein)
chain: B1 chain with H25V, V64L
B6: Chryseobacterium sp-62563 propeptide F73D (protein)
chain: B1 chain with H25V, F73D
B7: Chryseobacterium sp-62563 propeptide P69Y (protein)
chain: B1 chain with H25V, P69Y
B8: Chryseobacterium sp-62563 propeptide D90P (protein)
chain: B1 chain with H25V, D90P
B9: Chryseobacterium sp-62563 propeptide Y45N (protein)
chain: B1 chain with H25V, Y45N
B10: Chryseobacterium sp-62563 propeptide Q43K (protein)
chain: B1 chain with H25V, Q43K
B11: Chryseobacterium sp-62563 propeptide K86G (protein)
chain: B1 chain with H25V, K86G
B12: Chryseobacterium sp-62563 propeptide V40P (protein)
chain: B1 chain with H25V, V40P
B13: Chryseobacterium sp-62563 propeptide D49P (protein)
chain: B1 chain with H25V, D49P
B14: Chryseobacterium sp-62563 propeptide Q43D (protein)
chain: B1 chain with H25V, Q43D
B15: Chryseobacterium sp-62563 propeptide F38C (protein)
chain: B1 chain with H25V, F38C
B16: Chryseobacterium sp-62563 propeptide K33E (protein)
chain: B1 chain with H25V, K33E
B17: Chryseobacterium sp-62563 propeptide V7P (protein)
chain: B1 chain with V7P, H25V
B18: Chryseobacterium sp-62563 propeptide T88P (protein)
chain: B1 chain with H25V, T88P
B19: Chryseobacterium sp-62563 propeptide A76P (protein)
chain: B1 chain with H25V, A76P
B20: Chryseobacterium sp-62563 propeptide V23S (protein)
chain: B1 chain with V23S, H25V
B21: Chryseobacterium sp-62563 propeptide Y45G (protein)
chain: B1 chain with H25V, Y45G
B22: Chryseobacterium sp-62563 propeptide Q43V (protein)
chain: B1 chain with H25V, Q43V
B23: Chryseobacterium sp-62563 propeptide P69W (protein)
chain: B1 chain with H25V, P69W
B24: Chryseobacterium sp-62563 propeptide F38T (protein)
chain: B1 chain with H25V, F38T
B25: Chryseobacterium sp-62563 propeptide A42K (protein)
chain: B1 chain with H25V, A42K
B26: Chryseobacterium sp-62563 propeptide E52P (protein)
chain: B1 chain with H25V, E52P
B27: Chryseobacterium sp-62563 propeptide K35E (protein)
chain: B1 chain with H25V, K35E
B28: Chryseobacterium sp-62563 propeptide F38A (protein)
chain: B1 chain with H25V, F38A
B29: Chryseobacterium sp-62563 propeptide R93P (protein)
chain: B1 chain with H25V, R93P
B30: Chryseobacterium sp-62563 propeptide Q43R (protein)
chain: B1 chain with H25V, Q43R
B31: Chryseobacterium sp-62563 propeptide Y45A (protein)
chain: B1 chain with H25V, Y45A
B32: Chryseobacterium sp-62563 propeptide Y45K (protein)
chain: B1 chain with H25V, Y45K
B33: Chryseobacterium sp-62563 propeptide Y45T (protein)
chain: B1 chain with H25V, Y45T
B34: Chryseobacterium sp-62563 propeptide L74S (protein)
chain: B1 chain with H25V, L74S
B35: Chryseobacterium sp-62563 propeptide Y45S (protein)
chain: B1 chain with H25V, Y45S
B36: Chryseobacterium sp-62563 propeptide Y45Q (protein)
chain: B1 chain with H25V, Y45Q
B37: Chryseobacterium sp-62563 propeptide F73T (protein)
chain: B1 chain with H25V, F73T
B38: Chryseobacterium sp-62563 propeptide T41D (protein)
chain: B1 chain with H25V, T41D

molecular target: T1, Chryseobacterium sp-62563 deamidase polypeptide (second polypeptide, deamidase domain), wildtype (Chryseobacterium sp-62563); assay: cell-based or functional assay

NanoDSF thermal unfolding temperature [° C.]	Relative activity of maturated deamidase (% initial rate)	Leakage activity	Molecule
79.5	> 100		Chryseobacterium sp-62563 propeptide K96*
80.3	> 100		Chryseobacterium sp-62563 propeptide D90DA
	50		Chryseobacterium sp-62563 propeptide S97SF
78.7			Chryseobacterium sp-62563 propeptide V98*
81.1	> 100		Chryseobacterium sp-62563 propeptide S97SS
82	68		Chryseobacterium sp-62563 propeptide S97SY
	30		Chryseobacterium sp-62563 propeptide S97SI
	41		Chryseobacterium sp-62563 propeptide T100TA
81.7	98		Chryseobacterium sp-62563 propeptide T100*
69.2			Chryseobacterium sp-62563 propeptide P44PA
77.1	> 100		Chryseobacterium sp-62563 propeptide F95*
81.6	99		Chryseobacterium sp-62563 propeptide S97ST
77.5			Chryseobacterium sp-62563 propeptide I92*
79.8	> 100		Chryseobacterium sp-62563 propeptide F95FA
81.4	> 100		Chryseobacterium sp-62563 propeptide S97SK
	76	1%	B1
		0%	B2
	53	2%	B3
	67	0%	B4
	49	0%	B5
	31	2%	B6
	> 100	0%	B7
	55	0%	B8
	73	2%	B9
	64	3%	B10
	34	0%	B11
	39	0%	B12

NanoDSF thermal unfolding temperature [° C.]	Relative activity of maturated deamidase (% initial rate)	Leakage activity	Molecule
		0%	B13
	> 100	0%	B14
76.2	83	26%	B15
	66	0%	B16
		0%	B17
	46	0%	B18
		3%	B19
69.8	94	10% and 7%	B20
65.2	> 100	2%	B21
		0%	B22
	> 100	0%	B23
	93	2%	B24
	> 100	0%	B25
		0%	B26
	> 100	0%	B27
	72	2%	B28
	> 100	4%	B29
	59	0%	B30
	40	0%	B31
	48	0%	B32
73.7	> 100	2%	B33
	40	0%	B34
	> 100	0%	B35
	88	6%	B36
	42	0%	B37
		0%	B38
